Test results: patent publication US20260365731 (published 2026)
Values joined by “and” are separate entries in the source; they are usually repeats but may differ in a detail not shown here. Identical values can stand only once.

T1: human VEGFA (human, UniProt P15692)
T1 chain: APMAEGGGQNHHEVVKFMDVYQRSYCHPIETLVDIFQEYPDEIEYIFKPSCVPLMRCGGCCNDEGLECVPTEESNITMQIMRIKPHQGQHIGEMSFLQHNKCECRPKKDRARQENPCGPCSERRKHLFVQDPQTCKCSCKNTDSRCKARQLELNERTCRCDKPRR

B1: JS001 (TAB001, toripalimab) (antibody, V domains shown)
VH: QGQLVQSGAEVKKPGASVKVSCKASGYTFTDYEMHWVRQAPIHGLEWIGVIESETGGTAYNQKFKGRVTITADKSTSTAYMELSSLRSEDTAVYYCAREGITTVATTYYWYFDVWGQGTTVTVSS
VL: DVVMTQSPLSLPVTLGQPASISCRSSQSIVHSNGNTYLEWYLQKPGQSPQLLIYKVSNRFSGVPDRFSGSGSGTDFTLKISRVEAEDVGVYYCFQGSHVPLTFGQGTKLEIK
B2: Antibody 28 PD-1 arm (antibody, V domains shown)
VH: B1 VH
VL: B1 VL
B3: Antibody 24 PD-1 arm (antibody, V domains shown)
VH: B1 VH
VL: B1 VL
B4: Antibody 27 PD-1 arm (antibody, V domains shown)
VH: B1 VH
VL: B1 VL
B5: Antibody 23 PD-1 arm (antibody, V domains shown)
VH: B1 VH
VL: B1 VL
B6: DotAb4 (designed binder)
chain: EVQLVESGGGLVQPGGSLRLSCAISGFSLAATDIDWVRQAPGKGLEWVARIFSPSDFTDYADSVKGRFTISADTSKNTVYLQMNSLRAEDTAVYYCGRPDTYAYNIFLDTPTYNALHYRGQGTLVTVSS

Target: T1, human VEGFA
Test: SPR

binding result | Binder
no binding | B1

Each binder was assayed against T2, human PD-1 (human, UniProt Q15116) (assay: ELISA).

EC50 [nM] | Binder
59.5 | B2
14.6 | B3
23.8 | B4
6.93 | B5

These binders were tested against T2, human PD-1 (assay: BLI).

Kd [nM] | Binder
1.67 | B2
1.21 | B3
0.864 | B4
1.73 | B5
0.584 | B1

What follows are binders tested against T2, human PD-1 (assay: competition ELISA, PD-L1 blocking).

IC50 | Binder
573 nM | B2
243 nM | B3
297 nM | B4
293 nM | B5
255 nM and 135 nM | B1

Target: T1, human VEGFA
Test: BLI

Kd [nM] | Binder
< 0.0266 | B6
